Test results as given in patent US7968081B2, “Peptide for diagnosing, preventing and treating atherosclerosis and uses thereof” (Kyungpook National University Industry—Academic Cooperation …, priority 2007, dated 2011).
Ends that are not written are not given here. * marks the point of attachment. FITC = O=C1OC2(c3ccc(O)cc3Oc3cc(O)ccc32)c2ccc(NC(=S)*)cc21

What was measured:
[1] = target: T1, IL-4R (Homo sapiens, UniProt P24394); assay: Bindability of peptide to HT-1376 cells with inhibited expression of IL-4R (siRNA); format: binding; design: HT-1376 cells that essentially show constitutive expression of IL-4R; endogenous in cells; host or cells: HT-1376
T1 sequence (P24394 26-825): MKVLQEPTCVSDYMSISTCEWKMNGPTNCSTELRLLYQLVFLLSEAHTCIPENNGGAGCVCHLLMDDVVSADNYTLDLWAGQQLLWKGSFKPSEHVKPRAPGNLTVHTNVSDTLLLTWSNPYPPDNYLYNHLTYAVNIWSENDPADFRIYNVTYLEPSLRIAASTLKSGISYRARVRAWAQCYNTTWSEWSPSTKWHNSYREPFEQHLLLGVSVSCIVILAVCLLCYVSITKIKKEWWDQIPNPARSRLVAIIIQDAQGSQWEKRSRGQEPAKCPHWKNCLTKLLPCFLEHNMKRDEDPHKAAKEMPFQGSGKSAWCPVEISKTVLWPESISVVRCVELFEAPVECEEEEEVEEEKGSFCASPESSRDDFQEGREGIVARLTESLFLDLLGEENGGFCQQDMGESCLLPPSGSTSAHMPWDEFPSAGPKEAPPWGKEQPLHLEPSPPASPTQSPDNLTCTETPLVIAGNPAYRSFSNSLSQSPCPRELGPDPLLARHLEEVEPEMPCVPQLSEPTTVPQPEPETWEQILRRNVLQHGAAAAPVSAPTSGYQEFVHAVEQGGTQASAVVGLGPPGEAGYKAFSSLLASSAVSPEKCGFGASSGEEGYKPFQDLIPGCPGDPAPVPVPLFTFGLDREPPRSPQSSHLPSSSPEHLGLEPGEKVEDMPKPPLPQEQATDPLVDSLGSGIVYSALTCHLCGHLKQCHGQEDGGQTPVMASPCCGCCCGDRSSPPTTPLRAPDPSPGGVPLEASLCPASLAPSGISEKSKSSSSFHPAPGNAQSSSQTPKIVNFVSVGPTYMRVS
Experimental: Silencing RNA for IL-4R (Cat. #16708A, Ambion, USA) was introduced into HT-1376 cells that essentially show constitutive expression of IL-4R, according to a conventional method known in the art, and treated for 24 hours to thereby result in substantially no expression of IL-4R, followed by evaluation of peptide binding. More specifically, 10 nM of IL-4R silencing RNA synthesized by the manufacturer was mixed with a siPORT™ NeoFX™ lipid transfection agent (Ambion, USA), and the mixture was treated for 24 hours on HT-1376 cells grown in a 4-well chamber slide, such that IL-4R silencing RNA is incorporated into the cells. Thereafter, the culture medium was replaced with one containing 10% bovine serum and the cells were recovered for 24 hours. After staining of cells with IL-4R antibodies and nuclear DAPI staining under the same conditions as in FIG. 6, a cellular expression level of IL-4R was examined. After IL-4R staining, the FITC-CRKRLDRNC peptide was reacted with the cells under the same conditions as in FIG. 6, and a binding degree of the peptide was measured.

[2] = tested on: atherosclerotic plaque tissues; assay: In vivo atherosclerotic targeting of fluorescent dye-conjugated peptide (fluorescence microscopy of frozen sections); conditions: atherosclerosis-induced mice, circulation 15 min
Description: C57BL/6 mice (Ldlr−/−) into which deficiency of a low-density lipoprotein (LDL) receptor was introduced by a genetic engineering technique were fed daily for 10 weeks with 3 g of high-cholesterol diet, thereby inducing atherosclerosis in animals. The high-cholesterol diet was a special animal feed containing 1.25% cholesterol, 15% fat and 0.5% cholate (Oriental Yeast Co., Japan).
Here, the peptide was synthesized by tagging an N-terminus of the peptide with FITC (fluorescein isothiocyanate) as a green fluorescent dye. The synthesized FITC-CRKRLDRNC peptide and a control peptide (FITC-NSSVDK) at final blood concentrations of 50 μM were injected into the atherosclerosis-induced mice via the left ventricle of animals, followed by circulation for 15 min. Thereafter, the aortae were removed from each mouse, and frozen sections were prepared, followed by Oil Red O (fat marker, Sigma-Aldrich, USA) staining or vWF (vascular endothelial cell marker, 1:5000 dilution, Abcam, USA) and Mac-3 (macrophage marker, 1:50 dilution, BD, USA) staining (Matter et al., Circulation Research, 95:1225-1233, 2004). In order to stain nuclei in tissues, a mounting medium containing a nuclear staining dye, 4′,6-diamidino-2-phenylindole (DAPI) (manufactured by Molecular Probe, USA) was treated on a slide, according to a conventional method known in the art, followed by fluorescence microscopic examination.

[3] = target: T2, IL-4R (Mus musculus, UniProt P16382); assay: Histological distribution of peptide and IL-4R in atherosclerotic plaque tissues; format: in vivo, mice; conditions: 50 μM final concentration in blood, circulation 15 min; IL-4R antibody staining
T2 construct: from tissue; host or cells: aorta / atherosclerotic plaque of Ldlr-/- mice
T2 sequence (P16382 26-810): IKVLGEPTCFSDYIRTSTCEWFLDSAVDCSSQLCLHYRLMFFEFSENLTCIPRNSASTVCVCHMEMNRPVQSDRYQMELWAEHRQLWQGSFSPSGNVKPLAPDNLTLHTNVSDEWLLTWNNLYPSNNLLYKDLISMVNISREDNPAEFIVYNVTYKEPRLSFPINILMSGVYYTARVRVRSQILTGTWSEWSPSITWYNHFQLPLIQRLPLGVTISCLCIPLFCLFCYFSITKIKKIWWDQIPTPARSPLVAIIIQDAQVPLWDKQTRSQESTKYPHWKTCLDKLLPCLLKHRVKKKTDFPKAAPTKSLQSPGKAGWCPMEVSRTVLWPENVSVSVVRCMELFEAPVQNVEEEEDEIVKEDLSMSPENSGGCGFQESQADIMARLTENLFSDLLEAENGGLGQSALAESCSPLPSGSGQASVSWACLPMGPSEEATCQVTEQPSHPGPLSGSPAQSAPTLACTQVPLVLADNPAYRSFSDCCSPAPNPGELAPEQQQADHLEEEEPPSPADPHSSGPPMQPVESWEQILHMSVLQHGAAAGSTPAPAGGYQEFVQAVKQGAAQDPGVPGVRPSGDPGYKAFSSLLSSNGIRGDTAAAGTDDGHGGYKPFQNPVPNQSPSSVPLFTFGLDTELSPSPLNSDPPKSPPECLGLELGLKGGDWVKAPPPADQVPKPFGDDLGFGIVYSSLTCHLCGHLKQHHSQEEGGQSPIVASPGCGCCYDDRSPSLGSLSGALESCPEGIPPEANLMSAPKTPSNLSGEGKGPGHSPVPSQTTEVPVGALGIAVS
Experimental: In order to ascertain a receptor that binds to the peptide of the present invention, binding of the peptide was examined for various receptors. Out of those receptors, the results for IL-4R are as follows. First, fluorescein (FITC)-conjugated peptide of the present invention at a final concentration of 50 μM was injected into the blood of experimental animals, followed by circulation for 15 min. Thereafter, the aortae were removed from animals, and a frozen section slide was prepared. Then, the tissue section was stained by reaction of the section with antibodies (1:200 dilution, BD, USA) directed against IL-4R, at room temperature for 1 hour. In order to stain the tissue nuclei, DAPI was treated on the slide which was then examined under a fluorescence microscope (Joshi et al., Cancer Research, 61:8058-8061, 2001).

[4] = target: T1, IL-4R; assay: Bindability of peptide to IL-4R-expressing CHO-K1 cells (fluorescence microscopy); format: binding; conditions: 10 μM peptide, room temperature, 1 hour
Description: In order to further confirm roles of IL-4R as the receptor for the peptide of the present invention, a plasmid capable of expressing IL-4R (Cat. #TC119877, Origene, USA) was introduced into IL-4R-deficient CHO-K1 cells according to a conventional method known in the art, followed by expression of IL-4R, and binding of IL-4R with the peptide of the present invention was examined.
The cells were stained with antibodies (1:200 dilution) directed against. IL-4R and cell nuclei were stained with DAPI, followed by fluorescence microscopic examination. As a result, a large amount of IL-4R (red fluorescence) was present on the cell surface (FIG. 6B). Next, CHO-K1 and CHO-K1/IL-4R cells were reacted with 10 μM of the FITC-C-RKRLDRNC peptide at room temperature for 1 hour.

- binding to HT-1376/siIL-4R cells (IL-4R silencing RNA-treated) ([1]; same conditions as in FIG. 6): substantially no binding
- binding to mock silencing RNA-treated HT-1376 cells ([1]; same conditions as in FIG. 6): good bindability
- binding to HT-1376 cells (constitutive expression of IL-4R) ([1]; same conditions as in FIG. 6 (10 μM, room temperature, 1 hour)): active binding
- position of peptide (green fluorescence) relative to IL-4R (red fluorescence) in atherosclerotic plaque tissues [3]: almost identically positioned
- binding to CHO-K1/IL-4R cells (IL-4R-expressing) [4]: green fluorescence due to the peptide
- binding to IL-4R-deficient CHO-K1 cells [4]: no fluorescence arising from the peptide
Substance: FITC-CRKRLDRNC ({FITC}-CRKRLDRNC; cysteine pairing not given here) [FITC-CRKRLDRNC peptide, called the peptide of the present invention in b132]
- peptide detection in cerebral tissues ([2]; 50 μM): not detected
- peptide detection in pulmonary tissues ([2]; 50 μM): not detected
- peptide found in aortic atherosclerotic plaque tissues (green fluorescence) ([2]; final blood concentration 50 μM via left ventricle): more targeted in plaque tissues
